Assays:
[1] = cited from earlier work
CLP-induced sepsis = test: Survival in CLP-induced sepsis; assay type: in vivo, mice; conditions: for survival during CLP-induced sepsis: WT mice injected with recombinant protein after CLP
Description: (§1) To deplete Gr-1^+cells in vivo, WT B6 or NOD2−/− mice were i.p. injected with anti-Gr-1 mAb (160 μg/injection) (BD Bioscience, Sparks, Md., USA) 2 and 3 days prior to CLP. Recombinant mouse (mr) IL-1β (40 μg/mouse) or IL-10 (30 μg/mouse) (ProSpec-Tany TechnoGene, Rehovot, Israel) was i.p. injected into WT or Nod2^−/− mice 4 or 12 h after CLP, respectively. mrC5a (5 μg/injection) or anti-05a mAb (100 μg/injection) (R&D Systems Inc., Minneapolis, Minn., USA) was i.p. injected into WT or Nod2^−/− mice 4 and 12 h after CLP.
Survival data were plotted as Kaplan-Meier survival curves and analyzed using the log-rank test. Statistical significance was analyzed using Prism 5.0 (GraphPad Software Inc, San Diego, Calif., USA). One-way and two-way analyses of variance (ANOVA) and t-tests was performed, and a post hoc test was used if P<0.05. Data are expressed as the mean±standard error of the mean.

RIP2 = target: T1, RIP2 (Mus musculus, UniProt P58801); test: Blot of RIP2 phosphorylation in peritoneal immune cells during CLP-induced sepsis; assay type: in vivo; conditions: WT mice, SB203580 50 μg/mouse i.p.
T1 construct: reduced phosphorylation of RIP2 and P38 in peritoneal immune cells; endogenous in cells
T1 sequence (P58801 whole entry): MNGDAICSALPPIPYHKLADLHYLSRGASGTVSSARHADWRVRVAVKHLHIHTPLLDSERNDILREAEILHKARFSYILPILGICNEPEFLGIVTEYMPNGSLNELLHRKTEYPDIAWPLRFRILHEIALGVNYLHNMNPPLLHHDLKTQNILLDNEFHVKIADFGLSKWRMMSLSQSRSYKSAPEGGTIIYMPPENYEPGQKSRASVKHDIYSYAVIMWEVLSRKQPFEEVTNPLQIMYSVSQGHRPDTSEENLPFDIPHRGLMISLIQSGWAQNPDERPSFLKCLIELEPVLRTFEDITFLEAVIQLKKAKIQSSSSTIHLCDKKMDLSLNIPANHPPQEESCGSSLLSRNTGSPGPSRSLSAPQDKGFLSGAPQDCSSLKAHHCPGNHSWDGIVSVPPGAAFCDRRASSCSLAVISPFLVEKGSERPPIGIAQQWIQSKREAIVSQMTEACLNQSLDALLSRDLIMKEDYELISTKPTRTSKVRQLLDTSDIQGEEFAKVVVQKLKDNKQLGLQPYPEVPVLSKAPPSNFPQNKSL

CLP-induced sepsis mice = test: Serum and peritoneal cytokine and complement levels (ELISA) in CLP-induced sepsis mice; assay type: in vivo; conditions: for serum and peritoneal C5a generation: WT or Nod2−/− mice, recombinant cytokine 4 h or 12 h after CLP
Description: as §1
(§2) Concentrations of IL-1β, IL-6, IL-10, IFN-γ, TNF-α and C5a in serum and peritoneal fluid were measured in CLP-induced sepsis mice. All cytokines were measured using a BD Bioscience ELISA kit according to the manufacturer's instructions. Colorimetric reactions were stopped by adding 3 N HCl, and the optical absorbance at 450 and 570 nm was determined using a spectrophotometer.

[2] = test system: NOD2-mediated IL-1β and IL-10 production; test: Peritoneal immune cells cultured with SB203580 and/or MDP, IL-1β and IL-10 measured in culture; assay type: cell-based, mice
Description: as §2
To investigate the mechanism by which NOD2 enhances C5 generation during polymicrobial infection, serum and peritoneal levels of various cytokines in WT and Nod2^−/− mice were estimated after CLP. […] To confirm whether NOD2-mediated signals induce IL-1β and IL-10 production by immune cells, peritoneal cells from WT and Nod2^−/− mice were cultured with MDP, a NOD2 agonist. […] Among immune cells, monocytes, granulocytes, and dendritic cells, but not T or B cells, express NOD 2 (Gutierrez, O. et al. Induction of Nod2 in myelomonocytic and intestinal epithelial cells via nuclear factor-kappa B activation. J Biol Chem 277, 41701-41705 (2002)).
Upon activation, NOD2 oligomerizes and recruits the nuclear factor (NF)-κB-activating kinase receptor-interacting protein 2 (RIP2) via a homotypic CARD-CARD (caspase recruitment domain) interaction, triggering IκB phosphorylation and NF-κB activation.

CD55 = CD55 expression on Ly6-G+ peritoneal cells (flow cytometry) after CLP; assay type: in vivo, mice
Description: as §1
PLF cells were incubated with antibodies on ice for 30 min in 100 μl of staining buffer (0.5% BSA). FITC-conjugated anti-Ly-6G, phycoerythrin (PE)-conjugated anti-CD4 mAb, PE-conjugated anti-CD8, PE-conjugated anti-MHC class II, FITC-conjugated anti-CD80, FITC-conjugated anti-CD86, FITC-conjugated anti-annexin V mAbs, and 7AAD (7-amino-actinomycin D) were purchased from BD Biosciences. PE Cy5- or Alexa 647 (eBioscience, San Diego, Calif., USA)-conjugated anti-F4/80 mAb was used. Stained cells were then run on an LSR II and FACs caliber (BD Bioscience) and analyzed using Flowjo software (Treestar, Ashland, Oreg., USA).

bacteria = test: Bacterial CFUs in blood and liver homogenates after CLP; assay type: in vivo; conditions: Nod2−/− mice with CLP
Description: Bacterial CFUs were determined by plating serial dilutions of blood and liver homogenates onto blood agar plates (Hanil Komed, Seoul, Korea), which were incubated in 5% CO2 at 37° C. overnight. The number of colonies was counted 18 h later.

peritoneal immune cells = test: Responsiveness of peritoneal immune cells from CLP mice against LPS (cytokine production LPS vs PBS); assay type: in vivo; conditions: for LPS-mediated cytokine production by peritoneal immune cells: cells from Nod2−/− mice with CLP
Description: as §1
(§3) During bacterial septic shock, C5a triggers coagulopathy and neutrophil dysfunction, thereby defective bacterial clearance and cytokine production (Ward, P. A. The dark side of C5a in sepsis. Nat Rev Immunol 4, 133-142 (2004)). Therefore, to estimate C5a effects on immune responses in WT B6 and Nod2^−/− mice during infection, we examined the responsiveness of immune cells against lipopolysaccharide (LPS) and macrophage phagocytic activity, bacteria colony-forming units (CFUs), and levels of serum D-dimer after CLP. To estimate the responsiveness of peritoneal immune cells against LPS, peritoneal cells obtained from B6 or Nod2^−/− mice 24 h after CLP were stimulated with LPS or PBS (FIG. 1C). The responsiveness of peritoneal immune cells against LPS was determined by estimating ratios of individual cytokines produced against LPS versus PBS. Peritoneal immune cells obtained from Nod2^−/− mice 24 h after CLP produced higher IL-1β, IL-6, and TNF-αlevels against LPS than did WT peritoneal cells. The levels of serum D-dimer in Nod2^−/− mice were lower than those in WT mice (FIG. 1D). However, peritoneal cells obtained from Nod2^−/− mice engulfed more FITC-conjugated Escherichia coli than did WT peritoneal cells (FIG. 1E). Consistent with these findings, bacteria CFU levels in the blood and liver homogenates were higher in WT B6 mice than in Nod2^−/− mice (FIG. 1F). Recombinant C5a administration to Nod2^−/− mice with CLP reversed cytokine production by peritoneal immune cells and serum D-dimer levels, but not phagocytosis activity and bacterial CFUs.

peritoneal cells = test: Bacterial phagocytosis by peritoneal immune cells (FITC-labeled E. coli); assay type: in vivo; conditions: Nod2−/− mice with CLP
Description: Peritoneal fluid cells of WT B6 or Nod2^−/− mice were cultured with FITC-labeled E. coli (Invitrogen, Carlsbad, Calif., USA) for 15 min. Cells attached on the plates were washed with warm PBS three times and then treated with 0.2% trypan blue for 1 min at room temperature. Cells were fixed with 4% formalin for 15 min and cultured with FITC-labeled E. coli. to estimate nonspecific binding of E. coli on the cell surface. These cells, which were cultured with FITC-labeled E. coli, were then run on the FACs caliber machine and analyzed with Flowjo software.

[3] = Serum D-dimer levels after CLP; assay type: in vivo; conditions: Nod2−/− mice with CLP
Source text: as §3, with “Recombinant C5a administration to Nod2^−/− mice with CLP reversed cytokine production by peritoneal immune cells and serum D-dimer levels, but not phagocytosis activity and bacterial CFUs.” left out

[4] = 73 patients treated, Critical Care Medicine 2009
[5] = WT mice, CLP, SB203580 50 μg/mouse i.p.
[6] = WT mice peritoneal immune cells, SB203580 20 nM, MDP 20 μg/ml, 24 h
[7] = Nod2−/− mice injected with recombinant protein after CLP
[8] = Nod2−/− mice, polymicrobial infection

Drotrecogin alfa [Xigris]
fatality [1, 4]: increased | hemorrhage [1, 4]: severe hemorrhage had occurred | severe side effect in clinical trial ([1]; pediatric patients with severe blood infection): cerebral hemorrhage

C[S+]([O-])c1ccc(-c2nc(-c3ccncc3)c(-c3ccc(F)cc3)[nH]2)cc1 (centres unmarked) [SB203580, reference compound]
CLP-induced sepsis (CLP-induced sepsis; WT mice injected with SB203580, FIG. 6 legend): attenuates | survival rates during CLP-induced sepsis (CLP-induced sepsis; WT mice, SB203580 50 μg/mouse i.p. vs PBS): increased | phosphorylation of RIP2 in peritoneal immune cells (RIP2): reduced | levels of serum and peritoneal C5a during sepsis (CLP-induced sepsis mice; [5]): reduced | levels of serum and peritoneal IL-1β during sepsis (CLP-induced sepsis mice; [5]): reduced | levels of serum and peritoneal IL-10 during sepsis (CLP-induced sepsis mice; [5]): reduced | MDP-mediated IL-1β production by peritoneal cells [2, 6]: decreased | MDP-mediated IL-10 production by peritoneal cells [2, 6]: decreased | CD55 expression levels of Ly6-G+ granulocytes (CD55; [5]): reduced

CC(=O)N[C@@H]1[C@@H](O[C@H](C)C(=O)N[C@@H](C)C(=O)N[C@H](CCC(=O)O)C(N)=O)[C@H](O)[C@@H](CO)O[C@H]1O [MDP]
IL-1β production upon MDP treatment ([2]; NOD2-deficient cells): minimally produced | IL-10 production upon MDP treatment ([2]; NOD2-deficient cells): minimally produced | IL-1β production upon MDP treatment ([2]; WT peritoneal immune cells): produced | IL-10 production upon MDP treatment ([2]; WT peritoneal immune cells): produced

B1: recombinant IL-1β: Recombinant mouse (mr) IL-1β, 40 μg/mouse i.p. (protein, UniProt P10749 118-269, looked up)
Interleukin-1 beta: VPIRQLHYRLRDEQQKSLVLSDPYELKALHLNGQNINQQVIFSMSFVQGEPSNDKIPVALGLKGKNLYLSCVMKDGTPTLQLESVDPKQYPKKKMEKRFVFNKIEVKSKVEFESAEFPNWYISTSQAEHKPVFLGNNSGQDIIDFTMESVSS
survival rates during CLP-induced sepsis (CLP-induced sepsis; [7]): reduced | survival during CLP-induced sepsis (CLP-induced sepsis): did not affect | C5a levels during polymicrobial infection (CLP-induced sepsis mice; Il-10−/− mice with CLP): not altered | serum and peritoneal IL-10 levels (CLP-induced sepsis mice; Nod2−/− mice, polymicrobial infection (CLP)): enhanced | serum and peritoneal C5a generation (CLP-induced sepsis mice): enhanced | bacterial CFUs in the blood or liver homogenates (bacteria): reduced | LPS-induced cytokine production by peritoneal immune cells (peritoneal immune cells; cells from Il-10−/− mice with CLP): did not alter | LPS-mediated cytokine production by peritoneal immune cells (peritoneal immune cells): suppressed | phagocytosis of bacteria by peritoneal cells (peritoneal cells): reduced | CD55 expression on F4/80−Ly6-G+ peritoneal cells (CD55; Il-10−/− mice): did not decrease | CD55 expression on F4/80−Ly6-G+ peritoneal cells (CD55; [8]): decreased

B2: recombinant IL-10: Recombinant mouse IL-10, 30 μg/mouse i.p. (protein, UniProt P18893 19-178, looked up)
Interleukin-10: SRGQYSREDNNCTHFPVGQSHMLLELRTAFSQVKTFFQTKDQLDNILLTDSLMQDFKGYLGCQALSEMIQFYLVEVMPQAEKHGPEIKEHLNSLGEKLKTLRMRLRRCHRFLPCENKSKAVEQVKSDFNKLQDQGVYKAMNEFDIFINCIEAYMMIKMKS
survival rates during CLP-induced sepsis (CLP-induced sepsis; [7]): reduced | survival during CLP-induced sepsis (CLP-induced sepsis): did not affect | serum and peritoneal C5a generation (CLP-induced sepsis mice): enhanced | bacterial CFUs in the blood or liver homogenates (bacteria): not | LPS-mediated cytokine production by peritoneal immune cells (peritoneal immune cells): suppressed | CD55 expression on F4/80−Ly6-G+ peritoneal cells (CD55; [8]): decreased

B3: recombinant C5a: recombinant mouse C5a, i.p. injected 5 μg/injection (protein, UniProt P06684 679-755, looked up)
C5a anaphylatoxin: NLHLLRQKIEEQAAKYKHSVPKKCCYDGARVNFYETCEERVARVTIGPLCIRAFNECCTIANKIRKESPHKPVQLGR
modifications: C5a anaphylatoxin
notes: recombinant mouse C5a, i.p. injected 5 μg/injection
survival rates during CLP-induced sepsis (CLP-induced sepsis; [7]): decreased | survival during CLP-induced sepsis (CLP-induced sepsis): did not cause survival changes | serum D-dimer levels [3]: reversed | bacterial CFUs in the blood or liver homogenates (bacteria): not | LPS-mediated cytokine production by peritoneal immune cells (peritoneal immune cells): reversed
